3 molecules from patent US20250263483A1 (TRUSTEES OF COLUMBIA UNIVERSITY IN THE CITY OF NEW YORK, published 2025) can be followed below.

Test [1] has as its target T1, PAG-GFP (full-length human PAG fused to GFP) expressed on cells (human, UniProt Q9NWQ8 1-432).
T1 construct: Stably expressed in A549 cells (flow cytometry) and Jurkat T cells (microscopy); also called PAG-GFP (OE); not shown: GFP tag (peGFP-N1 / pCDH-PAG-GFP constructs)
T1 sequence: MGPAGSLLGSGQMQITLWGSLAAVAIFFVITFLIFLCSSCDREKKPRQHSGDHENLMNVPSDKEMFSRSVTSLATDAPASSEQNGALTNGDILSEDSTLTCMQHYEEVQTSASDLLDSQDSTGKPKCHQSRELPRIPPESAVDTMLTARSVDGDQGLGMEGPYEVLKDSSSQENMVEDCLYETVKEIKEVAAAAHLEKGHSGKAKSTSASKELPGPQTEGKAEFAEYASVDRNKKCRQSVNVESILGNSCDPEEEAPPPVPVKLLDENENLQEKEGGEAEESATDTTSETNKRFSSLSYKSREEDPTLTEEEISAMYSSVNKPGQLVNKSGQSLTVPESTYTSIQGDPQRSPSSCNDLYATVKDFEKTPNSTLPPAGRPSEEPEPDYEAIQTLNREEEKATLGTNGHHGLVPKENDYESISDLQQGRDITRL
As to the kind of experiment: flow cytometry, non-permeabilized A549 cells stably expressing PAG-GFP (FIG. 7B; FIG. 2E). As for the experimental part:
(§1) Non-permeabilized cells were stained with the primary antibody clones in FACS Buffer [HBSS without Ca²⁺/Mg²⁺, FBS (3%), NaN3 (0.02%), and CaCl2 (2.5 mM)], then washed and stained with fluorescently conjugated secondary antibody (goat anti-mouse, Jackson ImmunoResearch, Cat. No. 115-006-003). Stained cells were then fixed in 1% paraformaldehyde. Splenocytes were pre-treated with Fc receptor block (Biolegend, Cat. No. 422301). PAG-GFP expressing cells were fixed in 1% paraformaldehyde. Events were recorded using FACSCanto (BD), and analyzed using FlowJo software (Ver. 10.8.1).
A general note: Flow cytometry measures light scatter and fluorescence of single cells or particles in a stream.

Test [2] concerns the target T2, human PAG peptide (extracellular portion of human PAG) (human).
T2 construct: The immunogen was amino acids 1-16 of human PAG; also called human PAG-1 peptide; human PAG protein
T2 peptide: MGPAGSLLGSGQMQIT
The experiment in a line: dose-response ELISA, immobilized human PAG, purified monoclonal antibody (FIG. 2F). As for the experimental part:
(§2) Primary ELISA was done for screening binding of hybridoma supernatants to human, murine, and cynomolgus PAG (2 μg/mL). Second ELISA for confirmation of binding of purified monoclonal antibodies to human PAG, 96-well half area high binding ELISA plates (Corning 3690) were coated 1 μg/mL of human PAG protein in 1×TBS at room temperature for 2 hours. The plate was washed with TBS containing 0.05% Tween 20 and blocked with 2% BSA in TBS for 1 hour at room temperature. After 1 hour, the plate was washed and diluted PAG antibodies in 1×TBS were dispensed to respective wells and incubated for 1 hour at room temperature. The plate was washed and incubated with peroxidase-Affinipure F(ab′)2 goat anti-mouse IgG (Jackson Immuno Research, Cat. No. 115-006-003) at 1:5000 dilution for 1 hour at room temperature. After the plate was washed, 3, 3′, 5, 5′ tetramethyl benzidine (TMB) substrate (Biolegend, Cat. No. 421101) was added to each well. The reaction was stopped by adding 2N H2SO4. Absorbance was measured on plate reader (Biotek Synergy H1) and results calculated by A=A450 nm-A570 nm.
(In general: ELISA stands for enzyme-linked immunosorbent assay.)

Test [3] has as its target T3, mouse PAG, endogenous on wild-type C57BL6 splenocytes (mouse, UniProt Q3U1F9 1-429).
T3 construct: whole, on cells; also called murine PAG
T3 sequence (looked up): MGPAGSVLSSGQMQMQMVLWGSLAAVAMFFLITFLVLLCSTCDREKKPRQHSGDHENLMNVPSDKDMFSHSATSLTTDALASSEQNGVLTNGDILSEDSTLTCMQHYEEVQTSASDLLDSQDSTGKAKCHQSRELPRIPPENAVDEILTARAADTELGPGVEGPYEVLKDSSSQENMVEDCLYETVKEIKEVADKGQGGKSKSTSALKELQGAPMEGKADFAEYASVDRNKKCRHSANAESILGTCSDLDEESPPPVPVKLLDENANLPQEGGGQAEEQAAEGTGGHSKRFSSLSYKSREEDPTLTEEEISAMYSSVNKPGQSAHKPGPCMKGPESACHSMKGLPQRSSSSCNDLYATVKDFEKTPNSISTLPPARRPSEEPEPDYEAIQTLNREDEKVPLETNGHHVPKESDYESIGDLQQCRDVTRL
As to the kind of experiment: flow cytometry, non-permeabilized WT vs PAG KO mouse splenocytes (FIG. 2B). How it is done:
as §1

Test [4] has as its target T2, human PAG peptide (extracellular …). The experiment in a line: dose-response ELISA, immobilized human PAG, purified monoclonal antibodies (FIG. 2F). How it is done: as §2
Test [5] shares this target. The experiment in a line: ELISA on human PAG-1 peptide (FIG. 10).

B1: anti-PAG antibody clone 7M16A (antibody, mouse IgG1, kappa, V domains shown)
VH: EVQLQQSGPELVKPGASVKMSCKASGYTFTSYVMHWVKQKPGQGLEWIGYIYPYNDGTKYNEKFKGKATLTSDKSSSTAYMELSSLTSEDSAVYYCARYKYGQGFAYWGQGTRVTVSA
VL: DIQMTQSPASLSVSVGETVTITCRASENIYSNLAWYQQKQGKSPQLLVYAATNLADGVPSRFSGSGSGTQYSLKINSLQSEDFGSYYCQHFWGTPWTFGGGTKLEIKR
notes: Mouse hybridoma monoclonal, tested as hybridoma supernatant and as purified antibody
For the molecule B1, the binding result in test [1], in test [2] and in test [3] was “binds” in each case.

B2: anti-PAG antibody clone 8D04A (antibody, mouse IgG1, kappa, V domains shown)
VH: QIQLVQSGPELKKPGETVKISCKASGYIFTNYGMNWVKQAPGKGLKWMGWINPYTGEATYDDDFKGRFAFSLETSANTAYLQINNLKNEDTATYFCAKTGTTYWGQGTLVTVSA
VL: QIVLTQSPAIMSASPGEKVTMTCSASSSVSYMYWYQQKSGTSPKRWIYDTSKLASGVPARFSGSGSGTSYSLTINNMEAEDAATYYCQQWSSNPLTFGAGTKLELKR
notes: Mouse hybridoma monoclonal
With B2, the binding result in test [4] is “no binding”.

B3: 7M-hu-1 (humanized version of 7M16A) (antibody, V domains shown)
VH: QVQLVQSGAEVKKPGASVKVSCKASGYTFTSYVMHWVRQAPGQGLEWMGYIYPYNDGTKYNEKFKGRVTMTRDTSTSTVYMELSSLRSEDTAVYYCARYKYGQGFAYWGQGTTVTVSS
VL: DIQMTQSPSSVSASVGDRVTITCRASENIYSNLAWYQQKPGKAPKLLIYAATNLADGVPSRFSGSGSGTDFTLTISSLQPEDFATYYCQHFWGTPWTFGGGTKLEIKR
For B3, the binding result in test [5] is “binds”.
